Laboratory results taken from patent US20170267750A1, “Method of Treating Ovarian and Renal Cancer Using Antibodies Against T Cell Immunoglobulin Domain and Mucin Domain 1 (TIM-1) Antigen” (Celldex Therapeutics, Inc., priority 2005, published 2017).

B1: Auristatin E (AE)-conjugated anti-TIM-1 mAb 2.59.2 (antibody, V domains shown)
VH: NNNNNQSGPRLVKPSQTLSLTCTVSGGSISSDGYYWSWIRQHPGKGLEWIGYIYYSGSTFYNPSLKSRVAISVDTSKNQFSLKLSSVTAADTAVYYCARESPHSSNWYSGFDCWGQGTLVTVSS
VL: NNNNTQSPDFQSVTPKEKVTITCRASQSIGSRLHWYQQKPDQSPKLLIKYASQSFSGVPSRFSGSGSGTDFTLTINSLEAEDAATYYCHQSSNLPFTFGPGTKVDIKR
B2: Auristatin E (AE)-conjugated anti-TIM-1 mAb 2.70.2 (antibody, human IgG4, kappa, V domains shown)
VH: QVQLVESGGGVVQPGRSLRLSCAASGFIFSRYGMHWVRQAPGKGLKWVAVIWYDGSNKLYADSVKGRFTISRDNSKNTLYLQMNSLRAEDTAVYYCARDYYDNSRHHWGFDYWGQGTLVTVSS
VL: DIVMTQTPLSLPVTPGEPASISCRSSRSLLDSDDGNTYLDWYLQKPGQSPQLLIYTLSYRASGVPDRFSGSGSGTDFTLKISRVEAEDVGVYYCMQRVEFPITFGQGTRLEIKR
B3: anti-TIM-1 monoclonal antibody 2.54 (antibody, V domains shown)
VH: QVQLEQSGGGVVQPGRSLRLSCAASGFTFTNYGLHWVRQAPGKGLDWVAVIWYDGSHKFYADSVKGRFTISRDNSKNTLFLQMNSLRAEDTAVYYCTRDLDYWGQGTLVTVSS
VL: ETQLTQSPGTLSLSPGERVTLSCRASQSVSNNYLAWYQQKPGQAPRLLIYGASSRATGIPDRFSGSGSGTDFTLTISRLEPEDCAECYCQQYGSSLPLTFGGGTKVEIKR

How the values were obtained:
[1] = molecular target: TIM-1 (T cell, immunoglobulin domain and mucin domain 1), cell membrane-bound (human) (UniProt Q96D42); assay: cell-based or functional assay
TIM-1 (T cell, immunoglobulin domain and mucin domain 1), cell membrane-bound (human), sequence (Q96D42 21-364): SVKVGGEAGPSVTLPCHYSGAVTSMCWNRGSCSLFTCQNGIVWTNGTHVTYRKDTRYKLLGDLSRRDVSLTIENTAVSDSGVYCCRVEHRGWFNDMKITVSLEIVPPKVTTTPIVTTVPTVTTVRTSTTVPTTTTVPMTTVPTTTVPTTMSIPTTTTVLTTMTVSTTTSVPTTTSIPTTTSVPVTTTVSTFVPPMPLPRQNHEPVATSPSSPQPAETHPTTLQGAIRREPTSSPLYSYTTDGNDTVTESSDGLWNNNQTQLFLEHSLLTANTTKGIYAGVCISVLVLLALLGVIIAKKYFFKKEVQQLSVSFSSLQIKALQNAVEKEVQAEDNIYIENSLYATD

[2] = molecular target: TIM-1 antigen, soluble extracellular domain of TIM-1 (CG57008-02) with a V5-HIS tag (human) (UniProt Q96D42); assay: BIAcore 2000, 25 C, mAb captured on goat anti-human surface, TIM-1 antigen injected at 292 nM
TIM-1 antigen, soluble extracellular domain of TIM-1 (CG57008-02) with a V5-HIS tag (human), sequence (Q96D42 other isoform, or with tags, fused parts or gaps): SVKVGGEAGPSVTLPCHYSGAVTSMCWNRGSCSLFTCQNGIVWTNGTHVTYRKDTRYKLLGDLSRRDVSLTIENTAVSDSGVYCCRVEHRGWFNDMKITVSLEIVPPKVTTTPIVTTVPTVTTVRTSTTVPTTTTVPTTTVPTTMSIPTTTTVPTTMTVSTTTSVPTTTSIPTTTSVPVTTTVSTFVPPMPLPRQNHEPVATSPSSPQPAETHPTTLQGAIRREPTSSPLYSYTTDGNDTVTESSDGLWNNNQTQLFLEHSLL

Binder	CAKI-1 cell death, clonogenic assay with AE-conjugated antibody, maximum dose [1] [%]	Kd [2] [nM]
B1	> 90	–
B2	> 90	–
B3	–	3.35
